Positions count from the first letter of the chain named. Numbers in names are those of the source.
Experiments:
Settings in all cases: both partners purified
[1] = molecular target: T1, UPF1 full-length (UPF1-FL; aa 1-1118) (human, UniProt Q92900-2 1-1118); test: pull-down; GST-Tax as bait on GST resin, purified UPF1 proteins as prey; extensive washes with 0.3 M NaCl (methods: binding buffer with 200 mM NaCl); SDS-PAGE, coomassie staining
T1 construct: Up-Frameshift Suppressor 1 Homolog (UPF1), human, aa 1-1118; printed length 1118 aa; source: E. coli BL21 DE3, purified (nickel and calmodulin resin)
T1 sequence (looked up): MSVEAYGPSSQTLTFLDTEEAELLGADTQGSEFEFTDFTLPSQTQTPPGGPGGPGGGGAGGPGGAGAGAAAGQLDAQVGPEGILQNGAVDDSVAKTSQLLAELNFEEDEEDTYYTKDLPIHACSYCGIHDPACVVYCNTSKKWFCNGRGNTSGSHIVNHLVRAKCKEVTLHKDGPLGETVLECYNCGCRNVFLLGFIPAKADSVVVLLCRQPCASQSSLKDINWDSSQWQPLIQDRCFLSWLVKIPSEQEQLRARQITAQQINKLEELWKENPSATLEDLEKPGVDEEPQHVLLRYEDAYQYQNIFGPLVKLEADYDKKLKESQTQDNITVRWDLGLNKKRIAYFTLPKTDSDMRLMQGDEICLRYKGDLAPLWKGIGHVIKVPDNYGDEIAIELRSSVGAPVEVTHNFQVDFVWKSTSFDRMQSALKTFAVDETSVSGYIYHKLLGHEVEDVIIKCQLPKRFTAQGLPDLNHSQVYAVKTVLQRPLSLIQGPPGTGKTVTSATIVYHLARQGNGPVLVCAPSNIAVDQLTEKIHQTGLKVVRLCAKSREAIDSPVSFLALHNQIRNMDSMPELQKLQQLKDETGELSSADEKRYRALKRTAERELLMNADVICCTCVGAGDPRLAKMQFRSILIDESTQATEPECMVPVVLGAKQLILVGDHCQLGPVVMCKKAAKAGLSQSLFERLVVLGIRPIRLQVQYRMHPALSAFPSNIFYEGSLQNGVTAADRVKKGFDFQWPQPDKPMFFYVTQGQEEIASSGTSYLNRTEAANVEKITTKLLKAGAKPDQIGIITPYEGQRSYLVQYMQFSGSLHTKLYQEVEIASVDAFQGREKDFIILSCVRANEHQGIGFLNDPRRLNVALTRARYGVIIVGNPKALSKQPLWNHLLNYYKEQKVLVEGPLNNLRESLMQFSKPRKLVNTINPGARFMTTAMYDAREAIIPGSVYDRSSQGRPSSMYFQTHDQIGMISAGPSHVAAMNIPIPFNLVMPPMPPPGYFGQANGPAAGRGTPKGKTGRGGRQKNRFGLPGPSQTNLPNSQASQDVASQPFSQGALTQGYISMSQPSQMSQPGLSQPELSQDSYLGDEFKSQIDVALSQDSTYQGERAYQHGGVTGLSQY

[2] = molecular target: T2, UPF1 helicase core domain (UPF1-HD; aa 295-914), C-terminal hexahistidine (human, UniProt Q92900-2 295-914); test: as above
T2 construct: UPF1, human, helicase core domain (HD), aa 295-914; numbers count on: the 1118 aa form; for UPF1-HD only the C-terminal hexahistidine is named; also called UPF1-HD-His; HisUPF1-HD; source: E. coli BL21 DE3, purified (Ni-NTA); also in E. coli lysate (co-lysis with Tax-expressing bacteria); not shown: His6, C-terminal, kept
T2 sequence (looked up): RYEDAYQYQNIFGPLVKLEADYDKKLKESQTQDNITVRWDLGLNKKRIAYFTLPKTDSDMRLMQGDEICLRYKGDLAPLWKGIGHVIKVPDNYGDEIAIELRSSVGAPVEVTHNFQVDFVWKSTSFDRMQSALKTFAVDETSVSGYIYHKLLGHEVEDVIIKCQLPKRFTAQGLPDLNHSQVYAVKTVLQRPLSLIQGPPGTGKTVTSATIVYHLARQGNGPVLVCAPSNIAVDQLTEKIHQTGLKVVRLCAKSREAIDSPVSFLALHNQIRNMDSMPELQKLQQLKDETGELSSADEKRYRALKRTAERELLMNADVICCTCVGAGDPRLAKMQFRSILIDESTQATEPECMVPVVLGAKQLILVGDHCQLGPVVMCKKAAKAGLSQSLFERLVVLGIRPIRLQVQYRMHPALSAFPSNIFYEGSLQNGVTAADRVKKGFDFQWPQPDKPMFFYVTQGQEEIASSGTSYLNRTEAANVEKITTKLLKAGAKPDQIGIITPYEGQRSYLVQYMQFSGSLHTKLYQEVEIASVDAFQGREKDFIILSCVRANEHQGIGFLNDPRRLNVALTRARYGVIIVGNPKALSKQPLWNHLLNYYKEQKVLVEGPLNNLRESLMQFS

[3] = molecular target: T3, UPF1-CH-HD (CH and HD domains of UPF1; aa 115-914) (human, UniProt Q92900-2 115-914); test: as above
T3 construct: UPF1, human, CH and helicase domains, aa 115-914; numbers count on: the 1118 aa form; Tags 'and/or' as printed; source: E. coli BL21 DE3, purified (nickel and calmodulin resin)
T3 sequence (looked up): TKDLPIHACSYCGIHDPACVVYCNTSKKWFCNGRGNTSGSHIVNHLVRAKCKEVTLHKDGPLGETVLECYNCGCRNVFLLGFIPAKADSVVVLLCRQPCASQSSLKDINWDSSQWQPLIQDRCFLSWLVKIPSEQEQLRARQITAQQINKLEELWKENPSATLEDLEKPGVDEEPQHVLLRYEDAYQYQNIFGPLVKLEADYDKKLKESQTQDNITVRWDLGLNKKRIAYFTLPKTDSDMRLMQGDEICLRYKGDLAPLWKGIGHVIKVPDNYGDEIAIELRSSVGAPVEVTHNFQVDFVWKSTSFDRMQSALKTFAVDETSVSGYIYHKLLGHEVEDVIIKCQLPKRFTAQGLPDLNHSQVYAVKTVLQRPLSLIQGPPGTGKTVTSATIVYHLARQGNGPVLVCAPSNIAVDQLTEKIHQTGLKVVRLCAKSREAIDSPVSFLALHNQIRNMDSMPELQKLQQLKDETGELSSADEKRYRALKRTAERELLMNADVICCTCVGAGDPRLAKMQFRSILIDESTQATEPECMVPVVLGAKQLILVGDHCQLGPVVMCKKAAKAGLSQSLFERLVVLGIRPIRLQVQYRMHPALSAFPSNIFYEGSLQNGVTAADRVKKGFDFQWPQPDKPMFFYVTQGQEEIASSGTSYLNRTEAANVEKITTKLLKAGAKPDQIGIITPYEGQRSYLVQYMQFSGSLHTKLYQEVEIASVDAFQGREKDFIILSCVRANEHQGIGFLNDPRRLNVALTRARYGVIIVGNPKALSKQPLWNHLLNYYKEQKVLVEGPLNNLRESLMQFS

[4] = molecular target: T4, UPF1-HD-SQ (HD and SQ domains of UPF1; aa 295-1118) (human, UniProt Q92900-2 295-1118); test: as above
T4 construct: UPF1, human, helicase and SQ domains, aa 295-1118; numbers count on: the 1118 aa form; Tags 'and/or' as printed; source: E. coli BL21 DE3, purified (nickel and calmodulin resin)
T4 sequence (looked up): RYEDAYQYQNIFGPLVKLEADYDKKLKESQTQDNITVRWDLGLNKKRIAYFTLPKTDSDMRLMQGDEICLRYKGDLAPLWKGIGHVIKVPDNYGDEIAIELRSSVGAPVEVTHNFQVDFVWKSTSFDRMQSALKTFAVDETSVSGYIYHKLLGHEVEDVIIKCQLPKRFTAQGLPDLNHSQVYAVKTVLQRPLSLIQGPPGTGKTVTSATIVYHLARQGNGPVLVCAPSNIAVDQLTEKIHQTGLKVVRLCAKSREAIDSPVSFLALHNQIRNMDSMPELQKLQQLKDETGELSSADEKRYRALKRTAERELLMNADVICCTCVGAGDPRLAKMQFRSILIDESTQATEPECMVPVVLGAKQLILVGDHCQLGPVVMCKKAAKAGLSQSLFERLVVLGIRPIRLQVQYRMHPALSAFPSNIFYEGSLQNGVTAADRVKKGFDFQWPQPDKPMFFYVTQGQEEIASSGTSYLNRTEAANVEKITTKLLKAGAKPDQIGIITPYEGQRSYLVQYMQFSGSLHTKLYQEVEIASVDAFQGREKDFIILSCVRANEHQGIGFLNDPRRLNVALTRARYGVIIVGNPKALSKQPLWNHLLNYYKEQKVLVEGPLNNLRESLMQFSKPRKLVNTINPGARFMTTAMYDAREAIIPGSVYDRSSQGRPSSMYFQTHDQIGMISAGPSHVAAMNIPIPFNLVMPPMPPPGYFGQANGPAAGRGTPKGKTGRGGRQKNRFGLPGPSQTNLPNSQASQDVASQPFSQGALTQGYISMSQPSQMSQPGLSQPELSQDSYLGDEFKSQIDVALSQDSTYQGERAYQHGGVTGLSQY

[5] = molecular target: T5, GST-Tax_(CACA) (HTLV-1 Tax with C23 and C29 changed to alanine, N-terminal GST fusion) (HTLV-1, UniProt P03409 1-353, C23A | C29A); test: BLI; BLItz; GST-Tax covalently bound to an AR2G sensor; UPF1 His-HD proteins in running buffer (300 mM NaCl, 20 mM phosphate, 0.02% Tween 20, 0.1% albumin); 250 s association, 60 s dissociation
T5 construct: Tax protein of HTLV-1, 353 amino acids, double mutant of the zinc finger region; plasmid pGEX2T-Tax_(CACA) made from pGEX2T-TaxWT; also called GST-tagged Tax_(CACA); source: E. coli BL21-DE3, purified (glutathione magnetic beads); also in E. coli lysate (co-lysis with HisUPF1-HD bacteria); not shown: GST, N-terminal, kept

B1: GST-Tax (HTLV-1 Tax, wild type, N-terminal glutathione S-transferase fusion) (natural protein)
chain: not shown
notes: Tax protein of human T-cell lymphotropic virus type I (HTLV-1); also called TaxWT; HTLV-1 GST-Tax; source: E. coli BL21-DE3, purified (glutathione magnetic beads); also in E. coli lysate (co-lysis with HisUPF1-HD bacteria); not shown: GST, N-terminal, kept
- binding result [1]: binds
- binding result [2]: binds
- binding result [3]: binds
- binding result [4]: binds

B2: UPF1-HD_(DE636AA), histidine-tagged (domain or fragment)
chain: T2 sequence (looked up) with D342A, E343A
notes: numbers count on: the 1118 aa form; also called UPF1-HD_(DE633AA); UPF1-HD_(DEAA); source: E. coli BL21 DE3, purified (Ni-NTA)
- fold change of binding against WT [5]: ~1.8 times

B3: UPF1-HD_(R843S), histidine-tagged (domain or fragment)
chain: T2 sequence (looked up) with R549S
notes: UPF1, human, helicase core domain aa 295-914 (as UPF1-HD) with R843S; numbers count on: the 1118 aa form; source: E. coli, purified (as the other His-tagged UPF1 proteins)
- fold loss of affinity against WT [5]: 4 times

— paper PMC5789848, “HTLV-1 Tax plugs and freezes UPF1 helicase leading to nonsense-mediated mRNA decay inhibition” (Nature Communications, 2018)
